Test results taken from patent US8524227B2, “Anti-IL-TIF antibodies” (ZymoGenetics, Inc., priority 2002, dated 2013).

Target: T1, IL-TIF (Homo sapiens, UniProt Q9GZX6)
T1 construct: made in house; host or cells: BHK cells
T1 sequence (Q9GZX6 34-179): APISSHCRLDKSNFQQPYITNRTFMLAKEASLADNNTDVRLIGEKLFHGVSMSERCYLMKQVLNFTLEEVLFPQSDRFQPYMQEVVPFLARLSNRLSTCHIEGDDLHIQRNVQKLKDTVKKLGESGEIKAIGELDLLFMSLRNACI
Assay: Effect of zcytor16 on IL-TIF-induced acanthosis
Type: in vivo, mice
Settings: for Average Acanthosis: day 8, score 0-3
Method: Mice (female, C3H/HEJ, 8 weeks old; Jackson Labs, Bar Harbor, Me.) were divided into eight groups of eight animals each. IL-TIF was administered by constant infusion via mini-osmotic pumps, as described in example 32a. Alzet mini-osmotic pumps (model 2001; Alza corporation Palo Alto, Calif.) were loaded under sterile conditions with IL-TIF protein (A#601F, 0.22 mL) diluted in phosphate buffered saline (pH 7.0) to a concentration within the pump of 0.22 mg/mL for group 1-2 mice, 0.45 mg/mL for group 3-4 mice, 0.9 mg/mL for group 5-6 mice, or 0 mg/mL (diluent only) for group 7-8 mice. These pumps are designed to deliver their contents at a rate of 0.5 μl per hour over a period of 14 days. Using this nominal rate of infusion, dose levels were calculated to be […] and 0 μg/day for groups 7-8. For each pair of groups at a given dose level of IL-TIF, one of the groups was injected three times (days 1, 3, and 5) with 0.1 mg of human zcytor16 Fc protein (described herein) by the interperitoneal route. The other group was injected in the same fashion with vehicle (PBS).
On day 8 of the study, mice were euthanized and an approximately 1 cm square sample of skin surrounding the pump area was collected from each mouse. The skin was fixed in 10% neutral buffered formalin. Formalin fixed samples of skin were embedded in paraffin, routinely processed, sectioned at 5 um and stained with hematoxylin and eosin. The tissues were microscopically examined in blinded fashion by an ACVP board certified veterinary pathologist. This study was scored in a different manner than the previous example. The number of layers in the epidermis, from stratum basalis to stratum granulosum, was determined Based on the results, the sections were scored as follows: O-normal (2-3 layers), 1-mild thickening (3-4 layers), 2-moderate thickening (4-6 layers) and 3-severe thickening (>6 layers).

B1: zcytor16-Fc4: soluble receptor for IL-TIF, zcytor16 fused to Fc4; IL-TIF antagonist (protein)
chain: TQSTHESLKPQRVQFQSRNFHNILQWQPGRALTGNSSVYFVQYKIYGQRQWKNKEDCWGTQELSCDLTSETSDIQEPYYGRVRAASAGSYSEWSMTPRFTPWWETKIDPPVMNITQVNGSLLVILHAPNLPYRYQKEKNVSIEDYYELLYRVFIINNSLEKEQKVYEGAHRAVEIEALTPHSSYCVVAEIYQPMLDRRSQRSEERCVEIPEPRSSDKTHTCPPCPAPEAEGAPSVFLFPPKPKDTLMISRTPEVTCVVVDVSHEDPEVKFNWYVDGVEVHNAKTKPREEQYNSTYRVVSVLTVLHQDWLNGKEYKCKVSNKALPSSIEKTISKAKGQPREPQVYTLPPSRDELTKNQVSLTCLVKGFYPSDIAVEWESNGQPENNYKTTPPVLDSDGSFFLYSKLTVDKSRWQQGNVFSCSVMHEALHNHYTQKSLSLSPGK
In the case of B1, the “effect on epidermal thickening” value (100 μg zcytor16 (3 injections), mice treated with 5 μg IL-TIF/day) is reported as “decreased the amount of epidermal thickening”, the “Average Acanthosis” value (pump 2.5 μg IL-TIF/day + 100 μg zcytor16 (3 injections)) is reported as 0.8 and the “Average Acanthosis” value (pump 5 μg IL-TIF/day + 100 μg zcytor16 (3 injections)) is reported as 0.6. The “Average Acanthosis” value (pump 10 μg IL-TIF/day + 100 μg zcytor16 (3 injections)) was 1.9 and the “Average Acanthosis” value (pump Vehicle + 100 μg zcytor16 (3 injections)) was 0.0.
